This experiment has as its target T1, PRMT5-MEP50 complex (full-length, purified) (human | , UniProt O14744 1-637; Q9BQA1 1-342).
T1 construct: Protein arginine methyltransferase 5 (PRMT5), human, of the full-length PRMT5-MEP50 complex; MEP50 (WDR77), of the full-length PRMT5-MEP50 complex; also called native PRMT5-MEP50; PRMT5-MEP50 methyltransferase; copies: 4 + 4
The experiment can be described thus: fluorescence polarisation; competitive; tracer fluorescently labeled … (S1) 1 nM, PRMT5-MEP50 600 nM, unlabeled peptide titrated in two-fold dilutions; 50 mM HEPES, 250 mM NaCl, 1 mM TCEP, 0.01% Tween 20, pH 8.0, room temperature. As to conditions: both partners purified. (In general: Fluorescence polarisation rises when a labelled molecule tumbles more slowly, as on binding a larger partner.)

Ends that are not written are not given here.

T1 sequence (O14744 whole entry, chain 1 of 2): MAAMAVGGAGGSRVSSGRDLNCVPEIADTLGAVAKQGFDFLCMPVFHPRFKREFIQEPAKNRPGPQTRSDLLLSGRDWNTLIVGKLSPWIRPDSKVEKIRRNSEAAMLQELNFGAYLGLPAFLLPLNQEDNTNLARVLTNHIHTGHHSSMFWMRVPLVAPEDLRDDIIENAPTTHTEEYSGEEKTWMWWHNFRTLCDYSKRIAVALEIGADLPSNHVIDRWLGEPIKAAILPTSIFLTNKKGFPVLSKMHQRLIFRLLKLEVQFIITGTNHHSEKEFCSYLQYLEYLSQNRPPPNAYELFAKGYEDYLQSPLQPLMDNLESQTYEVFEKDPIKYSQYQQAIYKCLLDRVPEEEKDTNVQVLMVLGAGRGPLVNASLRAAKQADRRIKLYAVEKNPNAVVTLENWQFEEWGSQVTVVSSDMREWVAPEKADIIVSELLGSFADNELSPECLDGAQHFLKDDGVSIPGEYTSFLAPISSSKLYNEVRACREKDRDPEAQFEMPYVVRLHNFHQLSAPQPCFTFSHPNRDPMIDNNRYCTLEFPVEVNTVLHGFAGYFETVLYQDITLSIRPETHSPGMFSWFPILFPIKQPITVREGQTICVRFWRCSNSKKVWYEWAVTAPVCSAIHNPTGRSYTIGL
T1 sequence (Q9BQA1 whole entry, chain 2 of 2): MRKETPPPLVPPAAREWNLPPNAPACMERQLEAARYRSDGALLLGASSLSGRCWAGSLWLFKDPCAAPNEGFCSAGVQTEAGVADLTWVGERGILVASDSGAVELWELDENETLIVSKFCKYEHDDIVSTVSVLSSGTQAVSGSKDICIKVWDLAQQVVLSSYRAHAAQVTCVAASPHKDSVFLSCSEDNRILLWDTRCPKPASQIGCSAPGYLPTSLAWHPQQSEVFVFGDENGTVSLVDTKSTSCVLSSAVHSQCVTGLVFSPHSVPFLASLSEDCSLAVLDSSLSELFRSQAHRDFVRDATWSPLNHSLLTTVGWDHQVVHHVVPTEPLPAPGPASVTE

B1: fluorescently labeled SRVVPGQFDDADSSD RioK1 sequence (peptide)
peptide: SRVVPGQFDDADSSD
modifications: not fully specified; also: FITC label, position not given here
notes: also called S1; source: synthetic peptide
Turning to B1, the binding result is “binds”.
